Experimental data as given in PMC3707205.

Target: NHR2-mH (TAT- and NLS-free NHR2 protein)
Experiment: cross-linking; 20 μM protein in PBS, 0.01% glutaraldehyde, room temperature, various times; SDS-PAGE, coomassie staining

stoichiometry N: 4
Substance: NHR2-mH (TAT- and NLS-free NHR2 protein) (domain or fragment)
